T1: recombinant cynomolgus monkey (Macaca fascicularis) TfR1 (cynomolgus monkey (Macaca fascicularis), UniProt Q5RDH6 87-760 (Pongo abelii entry), limits assumed)
T1 construct: Recombinant protein; also called cTfR1; cyTfR1
T1 chain: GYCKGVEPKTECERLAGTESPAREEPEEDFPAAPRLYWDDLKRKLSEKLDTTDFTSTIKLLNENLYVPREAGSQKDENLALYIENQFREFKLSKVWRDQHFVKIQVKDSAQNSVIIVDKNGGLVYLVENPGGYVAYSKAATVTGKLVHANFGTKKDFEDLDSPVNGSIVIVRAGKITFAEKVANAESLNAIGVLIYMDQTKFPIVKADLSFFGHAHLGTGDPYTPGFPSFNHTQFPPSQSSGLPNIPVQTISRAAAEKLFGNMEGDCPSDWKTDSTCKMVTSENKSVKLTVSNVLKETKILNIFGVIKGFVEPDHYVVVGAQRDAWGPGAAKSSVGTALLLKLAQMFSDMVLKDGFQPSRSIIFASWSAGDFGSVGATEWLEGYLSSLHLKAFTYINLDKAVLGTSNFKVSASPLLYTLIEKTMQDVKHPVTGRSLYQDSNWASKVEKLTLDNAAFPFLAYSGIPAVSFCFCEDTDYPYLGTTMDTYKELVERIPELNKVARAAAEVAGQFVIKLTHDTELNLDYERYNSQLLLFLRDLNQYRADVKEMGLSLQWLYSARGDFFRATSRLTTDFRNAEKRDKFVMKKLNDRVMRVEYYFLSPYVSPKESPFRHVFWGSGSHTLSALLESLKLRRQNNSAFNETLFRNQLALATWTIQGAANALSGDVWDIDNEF


Key:
[1] = molecular target: T1, recombinant cynomolgus monkey (Macaca …); assay: ELISA on cTfR1, Fab conjugated to DMPK-targeting oligonucleotide, % normalized RFUs
[2] = molecular target: T1, recombinant cynomolgus monkey (Macaca …); assay: Table 14, Fab-ASO300 conjugate; method not named
[3] = molecular target: T2, recombinant human TfR1 (transferrin receptor protein 1) (human, UniProt P02786 89-760); assay: Table 14, Fab-ASO300 conjugate; method not named
T2 construct: Recombinant protein in SPR and ELISA; they were assigned to this molecule; also called hTfR1; huTfR1

[4] = molecular target: T2, recombinant human TfR1 (transferrin …); assay: ELISA on hTfR1, Fab conjugated to DMPK-targeting oligonucleotide, % normalized RFUs
[5] = molecular target: T1, recombinant cynomolgus monkey (Macaca …); assay: ELISA, recombinant TfR1 coated, Fab-ASO300 conjugate (row 'Conjugate binding affinity ELISA')
[6] = molecular target: T2, recombinant human TfR1 (transferrin …); assay: as above
[7] = molecular target: T2, recombinant human TfR1 (transferrin …); assay: ELISA on hTfR1, Fab conjugated to DMPK-targeting oligonucleotide, % normalized RFUs; remark: listed apart in the source
[8] = molecular target: T1, recombinant cynomolgus monkey (Macaca …); assay: ELISA on cTfR1, Fab conjugated to DMPK-targeting oligonucleotide, % normalized RFUs

EC50 [1] | DMPK oligo conjugate binding [2] | DMPK oligo conjugate binding [3] | EC50 [4] | EC50 [5] | EC50 [6] | EC50 [7] | EC50 [8] | Binder
2.1 nM | 1.85 nM | 1.18 nM | 1.7 nM | 2.1 nM | 1.7 nM |  |  | conjugate of humanized anti-TfR Fab 3M12 VH4/Vκ3 with DMPK-targeting oligonucleotide ASO300 (Fab, V domains shown, oligonucleotide ASO300 conjugated to the Fab via linker; residue and chain not stated, also called 3M12 (VH4/Vk3) conjugate) VH: QVQLQESGPGLVKPSQTLSLTCTVTGYSITSGYYWNWIRQPPGKGLEWIGYITFDGANNYNPSLKNRVSISRDTSKNQFSLKLSSVTAEDTATYYCTRSSYDYDVLDYWGQGTTVTVSS VL: DIQMTQSPSSLSASVGDRVTITCRASQDISNFLNWYQQKPGQPVKLLIYYTSRLHSGVPSRFSGSGSGTDFTLTISSLQPEDFATYYCQQGHTLPYTFGQGTKLEIKR
2.9 nM | 2.26 nM | 1.14 nM | 2.2 nM | 2.9 nM | 2.2 nM |  |  | conjugate of humanized anti-TfR Fab 3M12 VH3/Vκ2 with DMPK-targeting oligonucleotide ASO300 (Fab, V domains shown, oligonucleotide ASO300 conjugated to the Fab via linker; residue and chain not stated, also called 3M12 (VH3/Vk2) conjugate) VH: QVQLQESGPGLVKPSQTLSLTCSVTGYSITSGYYWNWIRQPPGKGLEWMGYITFDGANNYNPSLKNRVSISRDTSKNQFSLKLSSVTAEDTATYYCTRSSYDYDVLDYWGQGTTVTVSS VL: DIQMTQSPSSLSASVGDRVTITCRASQDISNFLNWYQQKPGQPVKLLIYYTSRLHSGVPSRFSGSGSGTDFTLTISSLQPEDFATYFCQQGHTLPYTFGQGTKLEIKR
 | 4.1 nM | 2.71 nM |  | 7.8 nM | 2.9 nM | 3.6 nM | 5.7 nM | conjugate of humanized anti-TfR Fab 3A4 VH3 (N54S)/Vκ4 with DMPK-targeting oligonucleotide ASO300 (Fab, V domains shown, oligonucleotide ASO300 conjugated to the Fab via linker; residue and chain not stated, also called 3A4 (VH3-N54S/Vk4) conjugate) VH: EVQLVQSGSELKKPGASVKVSCTASGFNIKDDYMYWVRQPPGKGLEWIGWIDPESGDTEYASKFQDRVTVTADTSTNTAYMELSSLRSEDTAVYYCTLWLRRGLDYWGQGTLVTVSS VL: DIVMTQSPLSLPVTPGEPASISCRSSKSLLHSNGYTYLFWFQQRPGQSPRLLIYRMSNLASGVPDRFSGSGSGTDFTLKISRVEAEDVGVYYCMQHLEYPFTFGGGTKVEIKR
 | 5.12 nM | 2.22 nM |  | 4.7 nM | 2.8 nM | 3.3 nM | 5.8 nM | conjugate of humanized anti-TfR Fab 3A4 VH3 (N54T)/Vκ4 with DMPK-targeting oligonucleotide ASO300 (Fab, V domains shown, oligonucleotide ASO300 conjugated to the Fab via linker; residue and chain not stated, also called 3A4 (VH3-N54T/Vk4) conjugate) VH: EVQLVQSGSELKKPGASVKVSCTASGFNIKDDYMYWVRQPPGKGLEWIGWIDPETGDTEYASKFQDRVTVTADTSTNTAYMELSSLRSEDTAVYYCTLWLRRGLDYWGQGTLVTVSS VL: DIVMTQSPLSLPVTPGEPASISCRSSKSLLHSNGYTYLFWFQQRPGQSPRLLIYRMSNLASGVPDRFSGSGSGTDFTLKISRVEAEDVGVYYCMQHLEYPFTFGGGTKVEIKR

From patent publication US11844843 (DYNE THERAPEUTICS, dated 2023)
